# In PMC5352116, “Quinacrine induces apoptosis in cancer cells by forming a functional bridge between TRAIL-DR5 complex and modulating the mitochondrial intrinsic cascade” (Oncotarget, 2016):
# Molecular target: T1, Death Receptor 5 (DR5) (human (endogenous in MCF-10A-Tr), UniProt O14763 56-440)
# T1 construct: Death receptor 5 (DR5, TRAIL-R2/Killer), endogenous in MCF-10A-Tr cells (derived from the human breast epithelial line MCF-10A); precipitated with an anti-DR5 antibody; also called TRAIL-R2; Killer; source: endogenous, MCF-10A-Tr cells (on cells; RIPA lysate)
# Experiment: co-IP; DISC analysis: MCF-10A-Tr cells untreated or treated with QC, TRAIL or TRAIL (10 ng/mL, 3 h) then QC (2.5 uM, 48 h); RIPA lysate, pre-cleared with sepharose-4B beads, immunoprecipitated with anti-DR5 antibody at 4°C overnight; western blot
# Details: partners not purified
binder,measurement,value
"Fas-Associated protein with Death Domain (FADD) (natural protein, human (endogenous in MCF-10A-Tr), UniProt Q13158 1-208, looked up, FADD, adaptor protein of the DISC, endogenous in MCF-10A-Tr cells; source: endogenous, MCF-10A-Tr lysate) MDPFLVLLHSVSSSLSSSELTELKFLCLGRVGKRKLERVQSGLDLFSMLLEQNDLEPGHTELLRELLASLRRHDLLRRVDDFEAGAAAGAAPGEEDLCAAFNVICDNVGKDWRRLARQLKVSDTKIDSIEDRYPRNLTERVRESLRIWKNTEKENATVAHLVGALRSCQMNLVADLVQEVQQARDLQNRSGAMSPMSWNSDASTSEAS","fold level in the DISC (anti-DR5 immunoprecipitate), TRAIL+QC treated against untreated cells",8 fold
